In this assay the target is CX3CR1 2-21 (UniProt P49238). Description: affinity chromatography on CX3CR1 peptide-Sepharose, dot blot. The following applies: reference: Tau42 not phosphorylated; sites S396.
Sequence of CX3CR1 2-21 (P49238 whole entry, looked up, tested part not stated): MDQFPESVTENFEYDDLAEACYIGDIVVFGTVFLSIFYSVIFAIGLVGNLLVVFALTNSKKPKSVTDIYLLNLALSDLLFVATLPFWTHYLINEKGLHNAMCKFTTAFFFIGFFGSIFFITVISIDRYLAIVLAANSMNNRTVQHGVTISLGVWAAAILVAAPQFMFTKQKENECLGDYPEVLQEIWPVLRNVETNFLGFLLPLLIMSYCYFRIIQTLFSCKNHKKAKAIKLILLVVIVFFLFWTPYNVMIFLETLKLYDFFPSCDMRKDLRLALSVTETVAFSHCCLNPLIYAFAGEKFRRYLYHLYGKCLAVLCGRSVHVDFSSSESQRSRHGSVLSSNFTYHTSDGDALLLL

As to “Tau (Tau42) (from UniProt P10636-8) Tau42 phosphorylated by GSK-3β”, the “other: elution fraction number” value is “weaker; reference 4”.
